Sequences and labels used below:
T1: human Trophoblast cell surface antigen 2 (TROP2) (human, UniProt P09758 27-274, limits assumed)
T1 construct: Analyte in the SPR experiments and immunogen; also called human TROP2
T1 sequence: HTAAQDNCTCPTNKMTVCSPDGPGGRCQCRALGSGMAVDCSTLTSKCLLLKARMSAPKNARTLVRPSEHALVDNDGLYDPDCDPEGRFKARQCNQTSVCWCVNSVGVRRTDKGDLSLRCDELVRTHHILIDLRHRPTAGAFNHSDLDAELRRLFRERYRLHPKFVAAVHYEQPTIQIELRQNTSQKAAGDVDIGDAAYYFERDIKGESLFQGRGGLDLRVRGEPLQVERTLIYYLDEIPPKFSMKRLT

B1: HC2/LC5 (antibody, human IgG1, kappa, V domains shown)
VH: QVQLVQSGAEVKKPGASVKVSCKASGYTFTDYSINWVRQAPGQGLEWMGVISTYYGDASYNQKFKGRVTMTRDTSTSTVYMELSSLRSEDTAVYYCARYGDGYNQFDYWGQGTLVTVSS
VL: DIQMTQSPSSLSASVGDRVTITCRVSESVDSYGNNFMHWYQQKPGKAPKLLIYRASNLESGVPSRFSGSGSGTDFTFTISSLQPEDIATYYCQQSYEDPYTFGGGTKLEIKR
notes: Humanized anti-TROP2 antibody
B2: HC5/LC5 (antibody, human IgG1, kappa, V domains shown)
VH: EVQLVQSGAEVKKPGESLKISCKGSGYTFTDYSINWVRQMPGKGLEWMGVISTYYGDASYNQKFKGQVTISADKSISTAYLQWSSLKASDTAMYYCARYGDGYNQFDYWGQGTLVTVSS
VL: DIQMTQSPSSLSASVGDRVTITCRVSESVDSYGNNFMHWYQQKPGKAPKLLIYRASNLESGVPSRFSGSGSGTDFTFTISSLQPEDIATYYCQQSYEDPYTFGGGTKLEIKR
notes: Humanized anti-TROP2 antibody
B3: HC2/LC3 (antibody, human IgG1, kappa, V domains shown)
VH: QVQLVQSGAEVKKPGASVKVSCKASGYTFTDYSINWVRQAPGQGLEWMGVISTYYGDASYNQKFKGRVTMTRDTSTSTVYMELSSLRSEDTAVYYCARYGDGYNQFDYWGQGTLVTVSS
VL: DIVMTQSPLSLPVTPGEPASISCRVSESVDSYGNNFMHWYLQKPGQSPQLLIYRASNLESGVPDRFSGSGSGTDFTLKISRVEAEDVGVYYCQQSYEDPYTFGGGTKVEIKR
notes: Humanized anti-TROP2 antibody
B4: HC2/LC4 (antibody, human IgG1, kappa, V domains shown)
VH: QVQLVQSGAEVKKPGASVKVSCKASGYTFTDYSINWVRQAPGQGLEWMGVISTYYGDASYNQKFKGRVTMTRDTSTSTVYMELSSLRSEDTAVYYCARYGDGYNQFDYWGQGTLVTVSS
VL: EIVLTQSPATLSLSPGERATLSCRVSESVDSYGNNFMHWYQQKPGQAPRLLIYRASNLESGIPARFSGSGSGTDFTLTISSLEPEDFAVYYCQQSYEDPYTFGGGTKVEIKR
notes: Humanized anti-TROP2 antibody
B5: HC4/LC2 (antibody, human IgG1, kappa, V domains shown)
VH: QVQLVQSGAEVKKPGSSVKVSCKASGYTFTDYSINWVRQAPGQGLEWMGVISTYYGDASYNQKFKGRVTITADESTSTAYMELSSLRSEDTAVYYCARYGDGYNQFDYWGQGTLVTVSS
VL: DVVMTQSPLSLPVTLGQPASISCRVSESVDSYGNNFMHWFQQRPGQSPRRLIYRASNLESGVPDRFSGSGSGTDFTLKISRVEAEDVGVYYCQQSYEDPYTFGGGTKVEIKR
notes: Humanized anti-TROP2 antibody
B6: HC2/LC1 (antibody, human IgG1, kappa, V domains shown)
VH: QVQLVQSGAEVKKPGASVKVSCKASGYTFTDYSINWVRQAPGQGLEWMGVISTYYGDASYNQKFKGRVTMTRDTSTSTVYMELSSLRSEDTAVYYCARYGDGYNQFDYWGQGTLVTVSS
VL: DIVMTQSPDSLAVSLGERATINCRVSESVDSYGNNFMHWYQQKPGQPPKLLIYRASNLESGVPDRFSGSGSGTDFTLTISSLQAEDVAVYYCQQSYEDPYTFGQGTKLEIKR
notes: Humanized anti-TROP2 antibody
B7: HC3/LC1 (antibody, human IgG1, kappa, V domains shown)
VH: QVQLVQSGAEVKKPGASVKVSCKASGYTFTDYSINWVRQAPGQRLEWMGVISTYYGDASYNQKFKGRVTITRDTSASTAYMELSSLRSEDTAVYYCARYGDGYNQFDYWGQGTLVTVSS
VL: DIVMTQSPDSLAVSLGERATINCRVSESVDSYGNNFMHWYQQKPGQPPKLLIYRASNLESGVPDRFSGSGSGTDFTLTISSLQAEDVAVYYCQQSYEDPYTFGQGTKLEIKR
notes: Humanized anti-TROP2 antibody
B8: HC4/LC3 (antibody, human IgG1, kappa, V domains shown)
VH: QVQLVQSGAEVKKPGSSVKVSCKASGYTFTDYSINWVRQAPGQGLEWMGVISTYYGDASYNQKFKGRVTITADESTSTAYMELSSLRSEDTAVYYCARYGDGYNQFDYWGQGTLVTVSS
VL: DIVMTQSPLSLPVTPGEPASISCRVSESVDSYGNNFMHWYLQKPGQSPQLLIYRASNLESGVPDRFSGSGSGTDFTLKISRVEAEDVGVYYCQQSYEDPYTFGGGTKVEIKR
notes: Humanized anti-TROP2 antibody
B9: HC2/LC2 (antibody, human IgG1, kappa, V domains shown)
VH: QVQLVQSGAEVKKPGASVKVSCKASGYTFTDYSINWVRQAPGQGLEWMGVISTYYGDASYNQKFKGRVTMTRDTSTSTVYMELSSLRSEDTAVYYCARYGDGYNQFDYWGQGTLVTVSS
VL: DVVMTQSPLSLPVTLGQPASISCRVSESVDSYGNNFMHWFQQRPGQSPRRLIYRASNLESGVPDRFSGSGSGTDFTLKISRVEAEDVGVYYCQQSYEDPYTFGGGTKVEIKR
notes: Humanized anti-TROP2 antibody
B10: HC1/LC3 (antibody, human IgG1, kappa, V domains shown)
VH: QVQLVQSGAEVKKPGASVKVSCKASGYTFTDYSINWVRQAPGQGLEWMGVISTYYGDASYNQKFKGRVTMTTDTSTSTAYMELRSLRSDDTAVYYCARYGDGYNQFDYWGQGTMVTVSS
VL: DIVMTQSPLSLPVTPGEPASISCRVSESVDSYGNNFMHWYLQKPGQSPQLLIYRASNLESGVPDRFSGSGSGTDFTLKISRVEAEDVGVYYCQQSYEDPYTFGGGTKVEIKR
notes: Humanized anti-TROP2 antibody
B11: HC4/LC1 (antibody, human IgG1, kappa, V domains shown)
VH: QVQLVQSGAEVKKPGSSVKVSCKASGYTFTDYSINWVRQAPGQGLEWMGVISTYYGDASYNQKFKGRVTITADESTSTAYMELSSLRSEDTAVYYCARYGDGYNQFDYWGQGTLVTVSS
VL: DIVMTQSPDSLAVSLGERATINCRVSESVDSYGNNFMHWYQQKPGQPPKLLIYRASNLESGVPDRFSGSGSGTDFTLTISSLQAEDVAVYYCQQSYEDPYTFGQGTKLEIKR
notes: Humanized anti-TROP2 antibody
B12: HC3/LC3 (antibody, human IgG1, kappa, V domains shown)
VH: QVQLVQSGAEVKKPGASVKVSCKASGYTFTDYSINWVRQAPGQRLEWMGVISTYYGDASYNQKFKGRVTITRDTSASTAYMELSSLRSEDTAVYYCARYGDGYNQFDYWGQGTLVTVSS
VL: DIVMTQSPLSLPVTPGEPASISCRVSESVDSYGNNFMHWYLQKPGQSPQLLIYRASNLESGVPDRFSGSGSGTDFTLKISRVEAEDVGVYYCQQSYEDPYTFGGGTKVEIKR
notes: Humanized anti-TROP2 antibody
B13: HC3/LC5 (antibody, human IgG1, kappa, V domains shown)
VH: QVQLVQSGAEVKKPGASVKVSCKASGYTFTDYSINWVRQAPGQRLEWMGVISTYYGDASYNQKFKGRVTITRDTSASTAYMELSSLRSEDTAVYYCARYGDGYNQFDYWGQGTLVTVSS
VL: DIQMTQSPSSLSASVGDRVTITCRVSESVDSYGNNFMHWYQQKPGKAPKLLIYRASNLESGVPSRFSGSGSGTDFTFTISSLQPEDIATYYCQQSYEDPYTFGGGTKLEIKR
notes: Humanized anti-TROP2 antibody
B14: HC1/LC4 (antibody, human IgG1, kappa, V domains shown)
VH: QVQLVQSGAEVKKPGASVKVSCKASGYTFTDYSINWVRQAPGQGLEWMGVISTYYGDASYNQKFKGRVTMTTDTSTSTAYMELRSLRSDDTAVYYCARYGDGYNQFDYWGQGTMVTVSS
VL: EIVLTQSPATLSLSPGERATLSCRVSESVDSYGNNFMHWYQQKPGQAPRLLIYRASNLESGIPARFSGSGSGTDFTLTISSLEPEDFAVYYCQQSYEDPYTFGGGTKVEIKR
notes: Humanized anti-TROP2 antibody
B15: HC3/LC2 (antibody, human IgG1, kappa, V domains shown)
VH: QVQLVQSGAEVKKPGASVKVSCKASGYTFTDYSINWVRQAPGQRLEWMGVISTYYGDASYNQKFKGRVTITRDTSASTAYMELSSLRSEDTAVYYCARYGDGYNQFDYWGQGTLVTVSS
VL: DVVMTQSPLSLPVTLGQPASISCRVSESVDSYGNNFMHWFQQRPGQSPRRLIYRASNLESGVPDRFSGSGSGTDFTLKISRVEAEDVGVYYCQQSYEDPYTFGGGTKVEIKR
notes: Humanized anti-TROP2 antibody
B16: HC5/LC3 (antibody, human IgG1, kappa, V domains shown)
VH: EVQLVQSGAEVKKPGESLKISCKGSGYTFTDYSINWVRQMPGKGLEWMGVISTYYGDASYNQKFKGQVTISADKSISTAYLQWSSLKASDTAMYYCARYGDGYNQFDYWGQGTLVTVSS
VL: DIVMTQSPLSLPVTPGEPASISCRVSESVDSYGNNFMHWYLQKPGQSPQLLIYRASNLESGVPDRFSGSGSGTDFTLKISRVEAEDVGVYYCQQSYEDPYTFGGGTKVEIKR
notes: Humanized anti-TROP2 antibody
B17: HC5/LC2 (antibody, human IgG1, kappa, V domains shown)
VH: EVQLVQSGAEVKKPGESLKISCKGSGYTFTDYSINWVRQMPGKGLEWMGVISTYYGDASYNQKFKGQVTISADKSISTAYLQWSSLKASDTAMYYCARYGDGYNQFDYWGQGTLVTVSS
VL: DVVMTQSPLSLPVTLGQPASISCRVSESVDSYGNNFMHWFQQRPGQSPRRLIYRASNLESGVPDRFSGSGSGTDFTLKISRVEAEDVGVYYCQQSYEDPYTFGGGTKVEIKR
notes: Humanized anti-TROP2 antibody

The test deals with T1, human Trophoblast cell surface antigen …. Put plainly: SPR affinity ranking, human TROP2.
As for B1, the Kd (commonly a measure of binding affinity in units of concentration) is 0.052 nM; the dissociation rate constant (koff) – broadly, a measure of how fast the partners let go of each other – turned out to be 7.38e-05 s⁻¹; the kon (commonly the rate constant with which the complex forms) worked out at 1.42e+06 M⁻¹ s⁻¹.

For B2, the Kd came to 0.238 nM, the dissociation rate constant (koff) was 0.000338 s⁻¹ and the association rate constant (kon) is 1.42e+06 M⁻¹ s⁻¹.

Turning to B3, the Kd amounted to 0.104 nM, the off-rate (koff) turned out to be 0.000141 s⁻¹ and the on-rate constant (kon) was found to be 1.36e+06 M⁻¹ s⁻¹.

As for B4, binding was put at a Kd of 0.0957 nM, the koff came to 0.00014 s⁻¹ and the kon is 1.46e+06 M⁻¹ s⁻¹.

In turn, B5 registered a Kd of 5.34 nM, an off-rate constant (koff) of 0.000984 s⁻¹ and a kon of 184000 M⁻¹ s⁻¹.

Consider B6, for which the Kd was found to be 0.0375 nM, the koff came to 5.78e-05 s⁻¹ and the kon is 1.54e+06 M⁻¹ s⁻¹.

As for B7, the Kd stood at 0.067 nM, the dissociation rate constant (koff) worked out at 0.00011 s⁻¹ and the kon was 1.65e+06 M⁻¹ s⁻¹.

Consider B8, for which the equilibrium dissociation constant (Kd) turned out to be 0.0916 nM, the koff turned out to be 0.000178 s⁻¹ and the kon was 1.95e+06 M⁻¹ s⁻¹.

Consider B9, for which binding was characterised by a dissociation constant (Kd) of 865 nM, the koff stood at 0.0251 s⁻¹ and the on-rate (kon) turned out to be 24900 M⁻¹ s⁻¹.

B10 had an equilibrium dissociation constant (Kd) of 0.121 nM, a koff of 0.000196 s⁻¹ and an on-rate (kon) of 1.62e+06 M⁻¹ s⁻¹.

On to B11, for which the equilibrium dissociation constant (Kd) was determined as 0.0457 nM, the koff worked out at 7.74e-05 s⁻¹ and the kon is 1.69e+06 M⁻¹ s⁻¹.

B12 came in with a Kd of 0.107 nM, a koff of 0.000159 s⁻¹ and a kon of 1.49e+06 M⁻¹ s⁻¹.

The molecule B13 displayed a Kd of 0.114 nM, a dissociation rate constant (koff) of 0.000151 s⁻¹ and an association rate constant (kon) of 1.32e+06 M⁻¹ s⁻¹.

B14 returned a Kd of 0.0911 nM, a koff of 0.000126 s⁻¹ and an on-rate constant (kon) of 1.38e+06 M⁻¹ s⁻¹.

B15 yielded a dissociation constant (Kd) of 10.4 nM, a koff of 0.00177 s⁻¹ and a kon of 169000 M⁻¹ s⁻¹.

Turning to B16, binding was put at a Kd of 0.182 nM, the off-rate constant (koff) amounted to 0.000266 s⁻¹ and the on-rate constant (kon) amounted to 1.46e+06 M⁻¹ s⁻¹.

Consider B17, for which binding was characterised by a dissociation constant (Kd) of 1.54 nM, the koff worked out at 0.000402 s⁻¹ and the association rate constant (kon) was found to be 261000 M⁻¹ s⁻¹.
